# In publication PMC5360024, “The Alzheimer’s disease risk factors apolipoprotein E and TREM2 are linked in a receptor signaling pathway” (Journal of Neuroinflammation, 2017):
# B1: ApoE-mimetic peptide corresponding to amino acids 130–149 (peptide)
# peptide: Ac-TEELRVRLASHLRKLRKRLL-NH2
# notes: also called ApoE-mim149; source: synthetic peptide, bought: GenScript
# Assays:
# Conditions in all cases: both partners purified
# Recombinant human TREM2 [1] = biological target: T1, Recombinant human TREM2 (human, UniProt Q9NZC2 19-174); assay: ELISA; competition: human TREM2 (40 nM) coated; 6 nM ApoE ε2 with 0-6 μM ApoE-mim149 or scrambled peptide, 1 h at RT; bound full-length ApoE detected with polyclonal anti-ApoE; one site-fit Ki
# T1 construct: Triggering receptor expressed on myeloid cells 2 (TREM2), human, recombinant; As I recall, this catalogue item is the extracellular domain with a C-terminal His tag; also called triggering receptor expressed on myeloid cells 2; hTREM2; source: bought: Sino Biological Inc. (#11084-H08H)
# T1 sequence (looked up): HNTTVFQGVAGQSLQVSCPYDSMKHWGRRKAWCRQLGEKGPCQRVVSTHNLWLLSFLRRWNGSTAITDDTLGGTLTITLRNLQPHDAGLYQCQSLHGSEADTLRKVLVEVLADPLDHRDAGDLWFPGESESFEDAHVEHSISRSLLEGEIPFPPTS
# Recombinant human TREM2 [2] = biological target: T1, Recombinant human TREM2; assay: ELISA; competition: human TREM2 (40 nM) coated; 6 nM ApoE ε3 with 0-6 μM ApoE-mim149 or scrambled peptide, 1 h at RT; bound full-length ApoE detected with polyclonal anti-ApoE; one site-fit Ki
# Recombinant human TREM2 [3] = biological target: T1, Recombinant human TREM2; assay: ELISA; competition: human TREM2 (40 nM) coated; 6 nM ApoE ε4 with 0-6 μM ApoE-mim149 or scrambled peptide, 1 h at RT; bound full-length ApoE detected with polyclonal anti-ApoE; one site-fit Ki
binder,measurement,setting,value
B1,Ki,Recombinant human TREM2 [1],827 nM
same,Ki,Recombinant human TREM2 [2],475 nM
same,Ki,Recombinant human TREM2 [3],1540 nM
